# Experimental data from publication PMC6471467, “Comparing Gly^11/DAla^11-Replacement vs. the in-Situ Neprilysin-Inhibition Approach on the Tumor-targeting Efficacy of the ^111In-SB3/^111In-SB4 Radiotracer Pair” (Molecules, 2019).
# Values joined by “and” are separate entries in the source; they are usually repeats but may differ in a detail not shown here. Equal entries are not always repeated. Where two headings read alike, the source gives them in different places. Peptide text beside a SMILES is read from it.
# Tests used:
# [1] = In vivo stability in peripheral mouse blood (radio-HPLC); parameters: species or system mice; conditions: blood 5 min pi; for Intact radiotracer in mouse blood, representative radiochromatogram, PA-coinjection: coinjection of 300 µg phosphoramidon (PA), HPLC system 2, single representative sample (Figure 3c,d); for Intact radiotracer in mouse blood, representative radiochromatogram: without PA-coinjection, HPLC system 2, single representative sample (Figure 3a,b); for Intact radiotracer in peripheral mouse blood: healthy male Swiss albino mice, iv 3 nmol peptide, without PA, radio-HPLC, mean ± sd, n = 3
# Method: For stability experiments (approved protocol # 1609, Prefecture of Attica), healthy male Swiss albino mice (30 ± 5 g, NCSR “Demokritos” Animal House Facility) were used. The radioligand, ^111In-SB3 or ^111In-SB4, was injected as a 100 μL bolus (11–22 MBq, 3 nmol total peptide) in the tail vein together with injection solution (100 µL; control) or with a phosphoramidon (PA)-solution (100 µL injection solution containing 300 µg PA). Animals were euthanized and blood (0.5–1 mL) was directly withdrawn from the heart and transferred in a pre-chilled EDTA-containing Eppendorf tube on ice. Blood samples were centrifuged for 10 min at 2000 g/4 °C and plasma was collected. After addition of an equal volume of ice-cold MeCN the mixture was centrifuged for 10 min at 15,000 g/4 °C. The supernatant was concentrated under a N2-flux at 40 °C to 0.05-0.1 mL, diluted with saline (0.4 mL), filtered through a 0.22 μm Millex GV filter (Millipore, Milford, USA) and analyzed by RP-HPLC. The Symmetry Shield RP18 (5 μm, 3.9 mm × 20 mm) column was eluted at a flow rate of 1.0 mL/min with the following linear gradient (system 2): 0% B at 0 min to 10% B in 10 min and then in 40 min to 30% B; A = 20 mM ammonium acetate and B = MeCN. The tR of the intact radiopeptide was determined by coinjection with the ^111In-SB3 or ^111In-SB4 reference in the HPLC.
# [2] = Biodistribution in SCID mice bearing PC-3 xenografts; assay type: in vivo; conditions: female, mouse, pancreas, total radioactivity, average ± sd; for tissue uptake at 4 h: 4 h pi; for tissue uptake at 24 h: 24 h pi, n = 4, read-out: Pancreatic uptake, 24 h pi
# Method: A suspension containing freshly harvested human PC-3 cells (≈150 μL of a ≈1.2 × 10^7 cells) was subcutaneously injected in the flanks of female SCID mice (15 ± 3 g, six weeks of age at the day of arrival, NCSR “Demokritos” Animal House Facility).
# Animals were euthanized at 4 and 24 h pi and dissected; samples of blood, tumors and organs of interest were collected, weighed and measured for radioactivity in the gamma counter. Intestines and stomach were not emptied of their contents. Data was calculated as percent injected dose per gram tissue (%ID/g) with the aid of standard solutions and represent mean values±sd, n = 4.
# [3] = molecular target: GRPR (Homo sapiens, UniProt P30550); test: biochemical
# [4] = small library of ^99mTc-labeled analogs with acyclic tetraamine chelator; cited from earlier work
# Text: Earlier work on the development of GRPR-antagonists generated a solid body of structure-activity relationships data, pinpointing at important factors for sustained in vivo action. […] Metabolic stability could be enhanced by suitable structural modifications, including DAla^11/Gly^11 in BBN-based or DAla^24/Gly^24 in GRP-based peptide ligands.
# [5] = iv, with phosphoramidon (PA), 300 µg co-injected (NEP-inhibition), coinjection of 300 µg PA, n = 4, read-out: Pancreatic uptake, 4 h pi, PA-coinjection
# [6] = iv 10 pmol peptide, control, n = 4, read-out: Pancreatic uptake, 4 h pi
# GRPR, sequence (P30550 whole entry): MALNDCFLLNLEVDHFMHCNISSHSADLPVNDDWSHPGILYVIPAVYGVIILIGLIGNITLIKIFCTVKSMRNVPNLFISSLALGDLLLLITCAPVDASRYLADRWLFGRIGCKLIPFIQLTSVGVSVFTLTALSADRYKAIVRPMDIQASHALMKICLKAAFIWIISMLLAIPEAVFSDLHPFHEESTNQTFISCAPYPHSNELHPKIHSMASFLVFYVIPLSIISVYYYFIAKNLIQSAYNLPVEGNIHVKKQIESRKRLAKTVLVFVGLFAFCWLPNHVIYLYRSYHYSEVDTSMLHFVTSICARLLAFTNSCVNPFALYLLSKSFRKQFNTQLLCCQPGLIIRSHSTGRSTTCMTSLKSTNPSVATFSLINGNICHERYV
Compound,"Intact radiotracer in mouse blood, representative radiochromatogram, PA-coinjection [1]","Intact radiotracer in mouse blood, representative radiochromatogram [1]",Intact radiotracer in peripheral mouse blood [1],"tissue uptake at 4 h [2, 5]",tissue uptake at 24 h ([2]; iv 10 pmol peptide),"tissue uptake at 4 h [2, 6]",IC50 [3],"Metabolic stability, rank within the library [4]"
"CCNC(=O)[C@H](CC(C)C)NC(=O)[C@H](Cc1c[nH]cn1)NC(=O)CNC(=O)[C@@H](NC(=O)[C@H](C)NC(=O)[C@H](Cc1c[nH]c2ccccc12)NC(=O)[C@H](CCC(N)=O)NC(=O)[C@@H](Cc1ccccc1)NC(=O)COCC(=O)Nc1ccc(CNC(=O)CN2CCN(CC(=O)O)CCN(CC(=O)O)CCN(CC(=O)O)CC2)cc1)C(C)C [^111In-SB3, metal not drawn]",98.9 % intact radiotracer,55 % intact radiotracer,56 ± 2 % intact,33.1 ± 6.2 %ID/g,0.6 ± 0.1 %ID/g,3.5 ± 0.4 %ID/g,–,–
"CCNC(=O)[C@H](CC(C)C)NC(=O)[C@H](Cc1c[nH]cn1)NC(=O)[C@@H](C)NC(=O)[C@@H](NC(=O)[C@H](C)NC(=O)[C@H](Cc1c[nH]c2ccccc12)NC(=O)[C@H](CCC(N)=O)NC(=O)[C@@H](Cc1ccccc1)NC(=O)COCC(=O)Nc1ccc(CNC(=O)CN2CCN(CC(=O)O)CCN(CC(=O)O)CCN(CC(=O)O)CC2)cc1)C(C)C [SB4, DOTA-p-aminomethylaniline-diglycolic acid-DPhe-Gln-Trp-Ala-Val-DAla-His- Leu-NHEt] (HELM PEPTIDE1{[O=C(O)CN1CCN(CC(=O)O)CCN(CC(=O)NCc2ccc(NC(=O)COCC(=O)[*:2])cc2)CCN(CC(=O)O)CC1].[dF].Q.W.A.V.[dA].H.L.[CCN[*:1]]}$$$$V2.0)",–,–,–,–,–,–,11.2 nM and 10.7 nM,–
CCNC(=O)[C@H](CC(C)C)NC(=O)[C@H](Cc1c[nH]cn1)NC(=O)CNC(=O)[C@@H](NC(=O)[C@H](C)NC(=O)[C@H](Cc1c[nH]c2ccccc12)NC(=O)[C@H](CCC(N)=O)NC(=O)[C@@H](Cc1ccccc1)NC(=O)COCC(=O)Nc1ccc(CNC(=O)CN2CCN(CC(=O)O)CCN(CC(=O)O)CCN(CC(=O)O)CC2)cc1)C(C)C [SB3],–,–,–,–,–,–,4.6 ± 0.3 nM,–
"CCNC(=O)[C@H](CC(C)C)NC(=O)[C@H](Cc1c[nH]cn1)NC(=O)[C@@H](C)NC(=O)[C@@H](NC(=O)[C@H](C)NC(=O)[C@H](Cc1c[nH]c2ccccc12)NC(=O)[C@H](CCC(N)=O)NC(=O)[C@@H](Cc1ccccc1)NC(=O)COCC(=O)Nc1ccc(CNC(=O)CN2CCN(CC(=O)O)CCN(CC(=O)O)CCN(CC(=O)O)CC2)cc1)C(C)C [^111In-SB4, metal not drawn] (HELM PEPTIDE1{[O=C(O)CN1CCN(CC(=O)O)CCN(CC(=O)NCc2ccc(NC(=O)COCC(=O)[*:2])cc2)CCN(CC(=O)O)CC1].[dF].Q.W.A.V.[dA].H.L.[CCN[*:1]]}$$$$V2.0)",99.7 % intact radiotracer,77 % intact radiotracer,80 ± 3 % intact,4.9 ± 0.7 %ID/g,0.1 %ID/g,1.6 ± 0.8 %ID/g,–,–
"^99mTc-[N4-p-aminomethylaniline-diglycolic acid-DPhe^6,DAla^11,Leu^13-NHEt]BBN(6-13)",–,–,–,–,–,–,–,highest metabolic stability
